According to article PMC9088798, “An Approach to Derive Functional Peptide Inhibitors of Transcription Factor Activity” (JACS Au, 2022):

Test system: WT-mDHFR
Assay: DHFR activity assay (NADPH turnover at 340 nm), WT-mDHFR
Assay type: biochemical, murine
Conditions: 100 nM WT-mDHFR, 60 µM NADPH, 50 µM DHF, no inhibitor; absorbance 340 nm; first 2.5 min, blank subtracted; average of triplicate experiments, one SD
Description: (A) Fifteen TRE sites were introduced into the mDHFR gene (2 silent and 13 substitutions) to allow for a cJun-induced transcriptional block. […] Change in absorbance at 340 nm was measured to determine the rate of NADPH turnover by (B) WT-mDHFR and (C) TRE-mDHFR with or without the substrate DHF. […] Specific activity was calculated from the linear initial rate (first 2.5 min for WT-mDHFR, first 10 min for TRE-mDHFR; +NADPH only reaction blank subtracted). Data are averages from triplicate experiments with errors shown as one standard deviation.
Jupiter Proteo column (4-μm particle size, 90 Å pore size, 250 × 10 mm; Phenomenex) using a water:acetonitrile gradient (0.1% TFA). Peptides without a SUMO tag, were concentrated after Histrap elution and HPLC purified. […]
or Mtx (1 µM in reaction). Reactions were initiated by the addition of DHF (50 µM in reaction plus a blank reaction with no DHF) and the absorbance at 340 nm of samples was measured using a Varian Cary 50 UV-Vis spectrophotometer. The specific activity (∆OD/minsample― ∆OD/minblank) was calculated using the following equation. Specific activity = 12.3× mg protein Library Construction and TBS Assay: Library inserts were produced using PCR fill-in reactions from synthesised primers (Sigma) with degenerate codons at the desired positions to produce the correct residue options. […]

B1: WT-mDHFR: wild-type murine dihydrofolate reductase, 6xHis-tagged (protein, UniProt P00375 2-187, looked up)
Dihydrofolate reductase: VRPLNCIVAVSQNMGIGKNGDLPWPPLRNEFKYFQRMTTTSSVEGKQNLVIMGRKTWFSIPEKNRPLKDRINIVLSRELKEPPRGAHFLAKSLDDALRLIEQPELASKVDMVWIVGGSSVYQEAMNQPGHLRLFVTRIMQEFESDTFFPEIDLGKYKLLPEYPGVLSEVQEEKGIKYKFEVYEKKD
modifications: 6xHis tag
notes: wild-type murine dihydrofolate reductase, 6xHis-tagged
For B1, the “Specific activity, +NADPH+DHF” value was 0.263 ± 0.002 μmol / min / mg protein.
